Assay results as given in article PMC4368477.

Molecular target: HA head of H1N1 A/Solomon Islands/3/2006 (Influenza A virus, A/Solomon Islands/3/2006 (H1N1))
Test: BLI

For CH65 Fab, which koff is on record?
The koff was 0.013 s⁻¹.

What about the kon of the same substance?
The kon was 42900 M⁻¹ s⁻¹.
